Experimental data published in article PMC7325863 (Neurobiology of aging, 2019).

Molecular target: Presenilin 1 (mouse (endogenous in primary neurons of …, UniProt P49769 1-467))
Assay: co-IP

fold change of co-precipitated Syt-1/PS1, old against young neurons (-KCl): 1.79 fold
B1: Synaptotagmin 1 (natural protein)
chain: MVSASRPEALAAPVTTVATLVPHNATEPASPGEGKEDAFSKLKQKFMNELHKIPLPPWALIAIAIVAVLLVVTCCFCVCKKCLFKKKNKKKGKEKGGKNAINMKDVKDLGKTMKDQALKDDDAETGLTDGEEKEEPKEEEKLGKLQYSLDYDFQNNQLLVGIIQAAELPALDMGGTSDPYVKVFLLPDKKKKFETKVHRKTLNPVFNEQFTFKVPYSELGGKTLVMAVYDFDRFSKHDIIGEFKVPMNTVDFGHVTEEWRDLQSAEKEEQEKLGDICFSLRYVPTAGKLTVVILEAKNLKKMDVGGLSDPYVKIHLMQNGKRLKKKKTTIKKNTLNPYYNESFSFEVPFEQIQKVQVVVTVLDYDKIGKNDAIGKVFVGYNSTGAELRHWSDMLANPRRPIAQWHTLQVEEEVDAMLAVKK
